Measurements published in article PMC11264168.
Values belong to the substance of their own block, whether it stands above or below them.

Columns and labels:
[1] = biological target: SyB-Cph1(GAF-PHY), the GAF-PHY fragment (photo-sensing module) of the PAS-less phytochrome SyB-Cph1, residues 1-421, assembled with phycocyanobilin, as Pr (Synechococcus sp. JA-2-3B'a(2-13)); assay: SEC; Pr in darkness, 30 mM Tris-HCl (pH 8.0), Superdex 200 Increase 10/300 GL, 0.5 ml/min, gel filtration mass standards
[2] = biological target: SyB-Cph1(GAF-PHY) Arg101-Ala mutant (Synechococcus sp. JA-2-3B'a(2-13)); assay: SEC; arginine-to-alanine mutants; data not shown
[3] = biological target: SyB-Cph1(GAF-PHY) Arg111-Ala mutant (Synechococcus sp. JA-2-3B'a(2-13)); assay: SEC; arginine-to-alanine mutants; data not shown
[4] = biological target: SyB-Cph1(GAF-PHY) Arg133-Ala mutant (Synechococcus sp. JA-2-3B'a(2-13)); assay: SEC; arginine-to-alanine mutants; data not shown

stoichiometry N [1]: 2
Substance: SyB-Cph1(GAF-PHY), the GAF-PHY fragment (photo-sensing module) of the PAS-less phytochrome SyB-Cph1, residues 1-421, assembled with phycocyanobilin, as Pr (domain or fragment)

stoichiometry N [2]: 2
Substance: SyB-Cph1(GAF-PHY) Arg101-Ala mutant (domain or fragment)

stoichiometry N [3]: 2
Substance: SyB-Cph1(GAF-PHY) Arg111-Ala mutant (domain or fragment)

stoichiometry N [4]: 2
Substance: SyB-Cph1(GAF-PHY) Arg133-Ala mutant (domain or fragment)
